Results published in US11447550B2, “Peptides for molecular detection of PD-L1” (THE CURATORS OF THE UNIVERSITY OF MISSOURI, priority 2016, dated 2022).
Ends that are not written are not given here.

Columns and labels:
PD-L1 [1] = biological target: T1, PD-L1 (Homo sapiens, UniProt Q9NZQ7); experiment: Peptide library study of stability and PD-L1 affinity; format: binding; settings: library of synthesized peptides
Description: Initial research was focuses on understanding the interaction of PD-1 and PD-L1 based on X-ray crystal structure data (FIG. 14) with the goal of identifying the peptide sequence that is selectively mediating the interactions. After the crystal structure of each protein was identified, a proprietary Fortran program was used to analyze which amino acid sequences interact most closely between the two proteins. Number of occurrences for each sequence was calculated and used to identify the peptide sequences used in this study. […] As a first step, a library of peptides was synthesized and the stability and PD-L1 affinity was studied. […] Data related to anti-PD-L1 and mock peptide was used to synthesize peptides for this study. The binding sequences of each peptide were further modified to incorporate either biotin or fluorophore for antigen detection, and to increase solubility of the peptide.

PD-L1 [2] = biological target: T1, PD-L1; experiment: Flow cytometry using patient tissues and whole blood; format: cell-based; design: Seven PD-L1 expressing NSCLC patient tissues were obtained from the MU OneHealth tissue bank; tissue MU OneHealth tissue bank; U.S. Biomax (TMA) LC1923; host or cells: FFPE placenta, seven NSCLC patient tissues, 192-case lung cancer tissue microarray, four Hodgkin's lymphoma cases
Description: Cases were evaluated using flow cytometry for suspected hematopoietic neoplasms. A portion of each fresh specimen was collected into RPMI. […] Any erythrocytes within the specimens were lysed with BD PharmLyse (San Jose, Calif.) and the specimens were washed with BD Staining Buffer with BSA (San Jose, Calif.). Each sample was evaluated using BD FACSCanto II, a three laser, eight-color flow cytometer (San Jose, Calif.) within 24 hours of collection. 50,000 events were collected for each sample. The expression data were analyzed using BD FACSDiva software, version 8.0 (San Jose, Calif.). Cases diagnosed as non-hematopoietic tumors were further subjected to evaluation with PDL-1 peptide if material was available combined with CK to identify the epithelial component. The cell suspensions were stained with 10 μl of BD Cytokeratin FITC (clone CAM5.2), 20 μl of Cy5-conjugated peptide solution, and 10 μl of BD Pharmingen CD274 PE (clone MIH1), incubated in the dark for 30 minutes, washed with BD Stain Buffer with BSA, and reconstituted to 500 μl with Stain Buffer with BSA in […] polystyrene tubes for analysis. The specimens were analyzed on the FACS Canto II using the same panel template, gating strategy, and collection events as the cell line specimens.
PD-L1 expression in patient tissues was analyzed using RK-10-Cy5 and compared to expression in MDA-MB-231 cells and a negative control of normal blood (FIG. 7A). The MFI of the MDA-MB-231 cells was 9,448, while the whole blood gave an MFI of −123. Squamous cell carcinoma and metastatic melanoma samples were investigated for PD-L1 expression using the previously mentioned MFIs as high and negative, respectively. The squamous cell carcinoma was shown as having an MFI of 107,808, while the melanoma sample gave an MFI of 1,250. […] Since […] is consistent with circulating tumor cells, it was thought that RK-10-Cy5 peptide could be used to detect CTCs. To see whether detection of low cell counts was possible, whole blood samples were spiked with MDA-MB-231 cells. MDA-MB-231 were diluted with whole blood, then treated with RK-10-Cy5 and cytokeratin before staining. These samples were also treated with a phycoerythrin-conjugated antibody (cd274) against PD-L1 to further verify PD-L1 detection. Positive signals were detected of cytokeratin and PD-L1 expression at low counts of ˜15 cells in 1 mL whole blood sample using both the peptide and the antibody (FIG. 7B).

T1 sequence (Q9NZQ7 19-290): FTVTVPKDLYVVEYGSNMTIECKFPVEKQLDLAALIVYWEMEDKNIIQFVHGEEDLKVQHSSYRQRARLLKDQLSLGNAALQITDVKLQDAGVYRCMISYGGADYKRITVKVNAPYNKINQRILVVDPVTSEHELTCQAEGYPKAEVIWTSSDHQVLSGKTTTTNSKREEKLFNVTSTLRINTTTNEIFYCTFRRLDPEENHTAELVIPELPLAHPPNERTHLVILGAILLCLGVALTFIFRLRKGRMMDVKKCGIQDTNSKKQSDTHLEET

## Cy5-GSGSGSTYLCGAISLAPKAQIKESL [RK-10-Cy5]
PD-L1 [1]
  PD-L1 affinity: high affinity
PD-L1 [2]; metastatic melanoma patient sample
  mean fluorescence intensity (MFI): 1,250
PD-L1 [2]; normal whole blood (negative control), FIG. 7A
  mean fluorescence intensity (MFI): −123
PD-L1 [2]; squamous cell carcinoma patient sample
  mean fluorescence intensity (MFI): 107,808
PD-L1 [2]; whole blood spiked with MDA-MB-231 cells, FIG. 7B
  low cell count at which positive cytokeratin and PD-L1 signals were detected: ~15 cells in 1 mL whole blood
